Assay results reported in patent US20250019412A1 (ALPINE IMMUNE SCIENCES, published 2025).
Residue numbers refer to the chain shown, from its start. Read-outs that look alike come from different tables or passages of the source. One block for each binder: values may come before it.

Assays:
Assay in all cases: cell-based or functional assay
recombinant human APRIL [1] = molecular target: T1, recombinant human APRIL (human, UniProt O75888 105-250, limits assumed)
T1 sequence (looked up): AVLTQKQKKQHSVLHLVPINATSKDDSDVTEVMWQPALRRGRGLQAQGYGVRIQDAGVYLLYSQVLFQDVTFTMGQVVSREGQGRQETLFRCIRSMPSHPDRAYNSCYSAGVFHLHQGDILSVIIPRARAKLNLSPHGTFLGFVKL

recombinant human BAFF [2] = molecular target: T2, recombinant human BAFF (human, UniProt Q9Y275 134-285)
recombinant human APRIL [3] = molecular target: T1, recombinant human APRIL; remark: listed apart in the source
recombinant human BAFF [4] = molecular target: T2, recombinant human BAFF; remark: listed apart in the source
recombinant human APRIL [5] = molecular target: T1, recombinant human APRIL; remark: listed apart in the source
recombinant human BAFF [6] = molecular target: T2, recombinant human BAFF; remark: listed apart in the source
recombinant human BAFF [7] = molecular target: T2, recombinant human BAFF; remark: listed apart in the source
recombinant human APRIL [8] = molecular target: T1, recombinant human APRIL; remark: listed apart in the source
recombinant human BAFF [9] = molecular target: T2, recombinant human BAFF; remark: listed apart in the source
recombinant human APRIL [10] = molecular target: T1, recombinant human APRIL; remark: listed apart in the source
recombinant mouse APRIL = molecular target: T3, recombinant mouse APRIL (mouse, UniProt Q9D777 96-241, limits assumed)
T3 sequence (looked up): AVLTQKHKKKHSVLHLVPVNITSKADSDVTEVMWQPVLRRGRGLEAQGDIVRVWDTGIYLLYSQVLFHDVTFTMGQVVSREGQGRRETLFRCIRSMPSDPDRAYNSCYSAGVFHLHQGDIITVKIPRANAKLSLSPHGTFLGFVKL

recombinant mouse BAFF = recombinant mouse BAFF (mouse, UniProt Q9WU72 127-309)
recombinant mouse BAFF, sequence (Q9WU72 127-309 limits assumed): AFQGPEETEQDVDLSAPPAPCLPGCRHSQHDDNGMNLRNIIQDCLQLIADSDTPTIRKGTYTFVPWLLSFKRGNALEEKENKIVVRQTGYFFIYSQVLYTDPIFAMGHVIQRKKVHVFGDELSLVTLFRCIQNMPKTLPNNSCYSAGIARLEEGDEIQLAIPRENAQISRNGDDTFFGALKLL

IC50 (nM) APRIL (recombinant human APRIL [1]): 179 nM
IC50 APRIL (Δ TACI 30-110-Fc) (recombinant human APRIL [1]): 0.05 fold of TACI 30-110-Fc
IC50 (nM) BAFF (recombinant human BAFF [2]): 1220 nM
IC50 BAFF (Δ TACI 30-110-Fc) (recombinant human BAFF [2]): 0.21 fold of TACI 30-110-Fc
IC50 (nM) APRIL (recombinant human APRIL [3]): 214 nM
IC50 APRIL (Δ TACI 30-110) (recombinant human APRIL [3]): 0.05 fold of TACI 30-110
IC50 (nM) BAFF (recombinant human BAFF [4]): 1270 nM
IC50 BAFF (Δ TACI 30-110) (recombinant human BAFF [4]): 0.28 fold of TACI 30-110
APRIL IC50 (pM) (recombinant human APRIL [5]): 9210 pM
APRIL IC50 (ΔWT) (recombinant human APRIL [5]): 0.75 fold of WT TACI (68-110)-Fc
BAFF IC50 (pM) (recombinant human BAFF [6]): 1550 pM
BAFF IC50 (ΔWT) (recombinant human BAFF [6]): 0.84 fold of WT TACI (68-110)-Fc
IC50 (read off the curve): blockade of human BAFF signalling via TACI (NF-κB luciferase reporter, Jurkat/NF-κB/TACI cells) (recombinant human BAFF [7]): ~0.6 nM
IC50 (read off the curve): blockade of human APRIL signalling via TACI (NF-κB luciferase reporter, Jurkat/NF-κB/TACI cells) (recombinant human APRIL [8]): ~0.6 nM
IC50 (read off the curve): blockade of human BAFF signalling via TACI (NF-κB luciferase reporter, Jurkat/NF-κB/TACI cells) (recombinant human BAFF [9]): ~2 nM
B1: 26 TACI CRD2-Fc (Fc fusion)
chain: SLSCRKEQGEYYDHLLRDCISCASICGQHPKQCADFCENKLRSGSGGGGSEPKSSDKTHTCPPCPAPEAEGAPSVFLFPPKPKDTLMISRTPEVTCVVVDVSHEDPEVKFNWYVDGVEVHNAKTKPREEQYNSTYRVVSVLTVLHQDWLNGKEYKCKVSNKALPAPIEKTISKAKGQPREPQVYTLPPSRDELTKNQVSLTCLVKGFYPSDIAVEWESNGQPENNYKTTPPVLDSDGSFFLYSKLTVDKSRWQQGNVFSCSVMHEALHNHYTQKSLSLSPG

IC50 (nM) APRIL (recombinant human APRIL [1]): 369 nM
IC50 APRIL (Δ TACI 30-110-Fc) (recombinant human APRIL [1]): 0.1 fold of TACI 30-110-Fc
IC50 (nM) BAFF (recombinant human BAFF [2]): 1330 nM
IC50 BAFF (Δ TACI 30-110-Fc) (recombinant human BAFF [2]): 0.23 fold of TACI 30-110-Fc
APRIL IC50 (pM) (recombinant human APRIL [5]): 12300 pM
APRIL IC50 (ΔWT) (recombinant human APRIL [5]): 1 fold of WT TACI (68-110)-Fc
BAFF IC50 (pM) (recombinant human BAFF [6]): 1850 pM
BAFF IC50 (ΔWT) (recombinant human BAFF [6]): 1 fold of WT TACI (68-110)-Fc
IC50 (read off the curve): blockade of human APRIL signalling via TACI (NF-κB luciferase reporter, Jurkat/NF-κB/TACI cells) (recombinant human APRIL [10]): ~5 nM
IC50 (read off the curve): blockade of human BAFF signalling via TACI (NF-κB luciferase reporter, Jurkat/NF-κB/TACI cells) (recombinant human BAFF [7]): ~2 nM
IC50 (read off the curve): blockade of human BAFF signalling via TACI (NF-κB luciferase reporter, Jurkat/NF-κB/TACI cells) (recombinant human BAFF [9]): ~3 nM
IC50 (read off the curve): blockade of mouse APRIL signalling via TACI (NF-κB luciferase reporter, Jurkat/NF-κB/TACI cells) (recombinant mouse APRIL): ~0.7 nM
IC50 (read off the curve): blockade of mouse BAFF signalling via TACI (NF-κB luciferase reporter, Jurkat/NF-κB/TACI cells) (recombinant mouse BAFF): ~5 nM
B2: 13 TACI CRD2-Fc (Fc fusion)
chain: B1 chain with E10K, Y11F, D35Y
